{"source": "paper PMC8962251", "about": "(Biomedicines, 2022)", "binders": {"B1": {"name": "CVRBDL-3 (peptide)", "peptide": "HDFWWEYDKKNDTWTRRRR-NH2", "notes": "also called CVRDBL-3; CVRBD-3; source: synthetic peptide; bought: CASLO"}}, "molecular_target": "T1, SARS CoV-2 S1S2 trimer (SARS-CoV-2, UniProt P0DTC2 14-1213)", "T1 construct": "also called trimeric S1S2; \"wt\" spike trimer", "assay": "SPR", "conditions": "both partners purified", "note": "Where no end group is shown, it is not given here.", "data": [{"binder": "B1", "values": [{"measurement": "stoichiometry N", "value": 1}]}]}
